Data published in the supplement of paper PMC10567573.

B1: PBXIP1 (parent)
chain: EKQKQPRWREGTKDSHDPLPSWAE

Variants of: B1
Assay: protein stability index of a GFP-peptide fusion (GPS, HEK-293T) (PSI 1-6); higher = more stable
Details: c terminus: a fixed tail appended
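Further: lentivirally expressed fusions sorted by FACS into six bins by GFP to DsRed ratio, PSI derived from sequencing read proportions per bin multiplied by bin number.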

Variant | protein stability index
EKQKQPRWREGTKDSHDPLNSWAE | 1.88
EKQKQPRWREGTKDSHDPLASWAE | 2.13
EKQKQPRWREGTKDSHDPLISWAE | 2.48
EKQKQPRWREGTKDSHDPLHSWAE | 2.22
EKQKQPRWREGTKDSHDPLMSWAE | 1.31
EKQKQPRWREGTKDSHDPLFSWAE | 1.52
EKQKQPRWREGTKDSHDPLYSWAE | 1.75
EKQKQPRWREGTKDSHDPLRSWAE | 2
EKQKQPRWREGTKDSHDPLWSWAE | 1.44
EKQKQPRWREGTKDSHDPLDSWAE | 1.79
EKQKQPRWREGTKDSHDPLQSWAE | 2.45
EKQKQPRWREGTKDSHDPLKSWAE | 2.66
EKQKQPRWREGTKDSHDPTPSWAE | 2.27
EKQKQPRWREGTKDSHDPEPSWAE | 3.44
EKQKQPRWREGTKDSHDPNPSWAE | 2.49
EKQKQPRWREGTKDSHDPHPSWAE | 2.63
EKQKQPRWREGTKDSHDPCPSWAE | 1.51
EKQKQPRWREGTKDSHDPKPSWAE | 1.68
EKQKQPRWREGTKDSHDPDPSWAE | 1.99
EKQKQPRWREGTKDSHDPGPSWAE | 2.56
EKQKQPRWREGTKDSHDPSPSWAE | 1.77
EKQKQPRWREGTKDSHDPPPSWAE | 1.73
EKQKQPRWREGTKDSHDPRPSWAE | 2.86
EKQKQPRWREGTKDSHDPLPSAAE | 5.8

Variant | protein stability index
EKQKQPRWREGTKDSHDPLPSEAE | 5.99
EKQKQPRWREGTKDSHDPLPSKAE | 5.42
EKQKQPRWREGTKDSHDPLPSHAE | 5.32
EKQKQPRWREGTKDSHDPLPSIAE | 5.01
EKQKQPRWREGTKDSHDPLPSDAE | 5.82
EKQKQPRWREGTKDSHDYLPSWAE | 1.95
EKQKQPRWREGTKDSHDMLPSWAE | 1.88
EKQKQPRWREGTKDSHDQLPSWAE | 1.96
EKQKQPRWREGTKDSHDDLPSWAE | 1.75
EKQKQPRWREGTKDSHDNLPSWAE | 1.92
EKQKQPRWREGTKDSHDVLPSWAE | 3.04
EKQKQPRWREGTKDSHDTLPSWAE | 1.87
EKQKQPRWREGTKDSHDSLPSWAE | 1.29
EKQKQPRWREGTKDSHDHLPSWAE | 1.75
EKQKQPRWREGTKDSEDPLPSWAE | 3.06
EKQKQPRWREGTKDSPDPLPSWAE | 2.26
EKQKQPRWREGTKDSYDPLPSWAE | 1.39
EKQKQPRWREGTKDSSDPLPSWAE | 2.56
EKQKQPRWREGTKDSWDPLPSWAE | 1.37
EKQKQPRWREGTKDSMDPLPSWAE | 1.07
EKQKQPRWREGTKDSDDPLPSWAE | 2.05
EKQKQPRWREGTKDSVDPLPSWAE | 1.69
EKQKQPRWREGTKDSIDPLPSWAE | 1.98
EKQKQPRWREGTKDSCDPLPSWAE | 3.68

Variant | protein stability index
EKQKQPRWREGTKDSKDPLPSWAE | 1.93
EKQKQPRWREGTKDSNDPLPSWAE | 2.85
EKQKQPRWREGTKDSHDPLPKWAE | 1.75
EKQKQPRWREGTKDSHDPLPEWAE | 3.19
EKQKQPRWREGTKDSHDPLPGWAE | 2.93
EKQKQPRWREGTKDSHDPLPYWAE | 3.67
EKQKQPRWREGTKDSHDPLPHWAE | 3.27
EKQKQPRWREGTKDSHDPLPQWAE | 3.03
EKQKQPRWREGTKDSHDPLPNWAE | 2.01
EKQKQPRWREGTKDSHDPLPDWAE | 4.6
EKQKQPRWREGTKDSHDPLPTWAE | 2.62
EKQKQPRWREGTKDSHDPLPLWAE | 2
EKQKQPRWREGTKDSHDPLPVWAE | 2.68
EKQKQPRWREGTKDSHDPLPFWAE | 2.54
EKQKQPRWREGTKDSHDPLPWWAE | 4.58
EKQKQPRWREGTKDSHDPLPMWAE | 2.6
EKQKQPRWREGTKDSHDPLPIWAE | 2.56
EKQKQPRWREGTKDKHDPLPSWAE | 2.02
EKQKQPRWREGTKDCHDPLPSWAE | 2.95
EKQKQPRWREGTKDTHDPLPSWAE | 1.96
EKQKQPRWREGTKDQHDPLPSWAE | 1.8
EKQKQPRWREGTKDDHDPLPSWAE | 1.84
EKQKQPRWREGTKDEHDPLPSWAE | 1.37
EKQKQPRWREGTKDMHDPLPSWAE | 3.08

Variant | protein stability index
EKQKQPRWREGTKDLHDPLPSWAE | 1.27
EKQKQPRWREGTKDWHDPLPSWAE | 1.54
EKQKQPRWREGTKDPHDPLPSWAE | 1.26
EKQKQPRWREGTKDNHDPLPSWAE | 1.63
EKQKQPRWREGTKDGHDPLPSWAE | 1.68
EKQKQPRWREGTKDAHDPLPSWAE | 2.65
EKQKQPRWREGTKDSHPPLPSWAE | 1.94
EKQKQPRWREGTKDSHKPLPSWAE | 1.24
EKQKQPRWREGTKDSHAPLPSWAE | 1.39
EKQKQPRWREGTKDSHEPLPSWAE | 1.39
EKQKQPRWREGTKDSHNPLPSWAE | 1.97
EKQKQPRWREGTKDSHCPLPSWAE | 3.64
EKQKQPRWREGTKDSHIPLPSWAE | 1.48
EKQKQPRWREGTKDSHSPLPSWAE | 1.86
EKQKQPRWREGTKDSHTPLPSWAE | 1.43
EKQKQPRWREGTKDSHRPLPSWAE | 2.27
EKQKQPRWREGTKDSHYPLPSWAE | 1.5
EKQKQPRWREGTKDSHVPLPSWAE | 3.08
EKQKQPRWREGTKDSHLPLPSWAE | 1.58
EKQKQPRWREGTKTSHDPLPSWAE | 1.8
EKQKQPRWREGTKSSHDPLPSWAE | 3.28
EKQKQPRWREGTKYSHDPLPSWAE | 2.35
